Bounds are passed on as bounds.

What all share (type): cell-based
For assay [1], the system named is Bacillus cereus (ATCC 11778). In words: Broth microdilution assay (MIC/MBC), planktonic bacteria. Particulars: mean ± SD, n = 3. As to the method: (§1) Antimicrobial activity of histone H5 against a variety of Gram-positive and Gram-negative planktonic bacteria was evaluated using a broth microdilution assay. The average minimum inhibitory concentration (MIC) and minimum bactericidal concentration (MBC) values (mean ± SD, n = 3) for six Gram-positive and four Gram-negative bacterial species are shown in Table 2. […] E. faecalis was the least susceptible to histone H5 inhibition, requiring over 32 µg/mL for complete bacterial growth inhibition which was the highest histone H5 concentration tested.
(§2) The bacterial strains tested in this study were Gram-positive bacteria (Bacillus cereus (ATCC 11778), methicillin-sensitive Staphylococcus aureus (ATCC 6538), methicillin-resistant Staphylococcus aureus (ATCC 29247), Listeria monocytogenes (ATCC 19112), Enterococcus faecalis (clinical isolate) and vancomycin-resistant Enterococcus (ATCC 51299)) and Gram-negative bacteria Escherichia coli K12 (ATCC 29425), Escherichia coli (O157:H7), Pseudomonas aeruginosa (ATCC 15442) and Salmonella typhimurium (ATCC 1535)). Bacterial colonies from glycerol stocks were plated on LB agar plates (BHI agar plates for L. monocytogenes) and incubated overnight at 37 °C. Single colonies from these plates were grown in 3 mL of LB broth (BHI broth for L. monocytogenes) overnight at 37 °C and shaken at 250 rpm. […] The bacterial suspension was pelleted at 3,000 × g, 4 °C for 10 minutes and washed with PBS (twice), and then adjusted to 10^5–10^6 CFUs/mL in PBS.
(§3) Supplementary Information
(§4) Broth microdilution assay
(§5) The protocol for this step of the project was based on established methods22. Histone H5 or the peptides were dissolved in sterile water, pH 7.4, serially two-fold diluted and aliquoted in a 1:1 (v/v) ratio with bacteria. Kanamycin or ampicillin served as a positive control for inhibition, and sterile water (pH 7.4) as a negative control for inhibition. The tubes were then incubated for 3 hours at 37°C an d shaken at 200 rpm. Next, 100 µL of each tube and 100µL of LB broth (BHI broth for L. monocytogenes) was plated in wells of a 96-well microplate. The microplate was incubated in the EON microplate reader overnight at 206 oscillations/min and at 37°C. During this period, the EON microplate spectrophotometer and Gen5 data analysis software (BioTek, Winooski, VT, USA) were used to monitor the growth of bacteria by measuring the optical density at 600 nm every 30 minutes for 18 hours. The lowest protein concentration without visible bacterial growth was designated as the minimum inhibitory concentration (MIC). Bacteria (10 µL) from the wells at MIC, MIC x 2 and MIC x 3 concentrations of H5 were plated on LB agar (BHI agar for L. monocytogenes) and incubated at 37°C for 18 hours. The lowest concentration of histone H5 without a single colony was designated as the minimum bactericidal concentration (MBC). […]
(In general: In broth dilution the organism is exposed to a series of concentrations in liquid medium.)

Assay [2] deals with Enterococcus faecalis (clinical isolate). The description is as above. Particulars: mean ± SD, n = 3. As to the method: as §1, §2, §3, §4, §5
The subject of assay [3] is Escherichia coli K12 (ATCC 29425). The assay is described as above. As to the method: as §1, §2, §3, §4, §5
The test system of assay [4] is Salmonella typhimurium (ATCC 1535). The description is as above. As to the method:
as §1, §2, §3, §4, §5

In assay [5] the test system is methicillin-resistant Staphylococcus aureus (ATCC 29247). The description is as above. The note with it: mean ± SD, n = 3. As to the method: as §1, §2, §3, §4, §5
The subject of assay [6] is methicillin-sensitive Staphylococcus aureus (ATCC 6538). The description is as above. The note with it: mean ± SD, n = 3. Here is the method:
as §1, §2, §3, §4, §5

Assay [7] relates to vancomycin-resistant Enterococcus (ATCC 51299). The assay is described as above. The note with it: mean ± SD, n = 3. Here is the method: as §1, §2, §3, §4, §5
Assay [8] deals with Listeria monocytogenes biofilms. In words: MBEC assay (MBEC Assay Biofilm Inoculator), anti-biofilm activity. Here is the method: The anti-biofilm activity of histone H5 against P. aeruginosa and L. monocytogenes biofilms was assessed using the MBEC Assay Biofilm Inoculator (formerly the Calgary Biofilm Device (CBD)).
The preparation of the bacterial suspension was the same as described in the determination of the MIC and MBC, except that the bacterial suspension was adjusted to 10^5 CFUs/ml in LB broth (BHI broth for L. monocytogenes), not PBS. Wells of an MBEC™ Assay Biofilm Inoculator (Innovotech, Edmonton, AB), which contains pegs projecting downwards from the lid that serve as a surface for biofilm formation, were inoculated with 150 µL of bacterial suspension. The plate was incubated for 24 hours at 37 °C (110 rpm) for Pseudomonas aeruginosa bacterial biofilms or for 72 hours at 22 °C (60 rpm) for Listeria monocytogenes. Following incubation, planktonic cells were rinsed away by switching the 96-peg lid to a sterile 96-well microplate with 200 μL of sterile PBS per well. Pegs with established biofilms were incubated with 200 μL of histone H5 (dissolved in sterile water, pH 7.4), in wells of another sterile 96-well microplate containing serially two-fold dilutions of H5. Solutions of gentamicin and kanamycin served as positive controls for P. aeruginosa and L. monocytogenes, respectively, whereas sterile water (pH 7.4) served as a negative control. The device was incubated for 2 hours at 37 °C, 110 rpm for P. aeruginosa and at 22 °C, 60 rpm for L. monocytogenes. The 96-peg lid was then rinsed twice as described above and placed on a sterile 96-well microplate with 200 μL of LB broth (P. aeruginosa) or BHI broth (L. monocytogenes) per well. The microplate was sonicated for 10 minutes (P. aeruginosa) or 30 minutes (L. monocytogenes) in order to dislodge the biofilms from the pegs, after which the peg-lid was replaced with a sterile, normal lid. This microplate was incubated in the EON microplate reader overnight at 37 °C (206 oscillations/min). The EON microplate spectrophotometer with Gen5 data analysis software (BioTek, Winooski, VT, USA) was used to monitor the growth of bacteria by measuring the optical density at 600 nm every 30 minutes for 24 hours (P. aeruginosa) or 48 hours (L. monocytogenes). The lowest histone H5 concentration without visible bacterial growth was designated as the minimum biofilm eradication concentration (MBEC). Additionally, a standard curve for the number of viable bacteria in the inoculum versus bacterial growth lag time was generated, since every microplate additionally contained wells with serially ten-fold diluted bacteria obtained from the uninhibited biofilm control (sterile H2O). Bacterial growth inhibition for each histone H5 concentration tested was determined from this standard curve.

The mark [9] stands for this setting: plated on LB agar, 37 °C 18 h, lowest concentration without a single colony.
The mark [10] stands for this setting: broth microdilution, 3 h at 37 °C, then OD600 growth 18 h in LB broth, mean ± SD, n = 3.
Where [11] appears, read: plated on LB agar, 37 °C 18 h, lowest concentration without a single colony, mean ± SD, n = 3.
[12] abbreviates: value in the figure, representative of three independent trials, each in triplicate.
Where [13] appears, read: broth microdilution, 3 h at 37 °C, then OD600 growth 18 h in LB broth.

B1: histone H5: erythrocyte-specific linker histone purified from chicken erythrocytes, 190 amino acids (protein, UniProt P02259 2-190, looked up)
Histone H5: TESLVLSPAPAKPKRVKASRRSASHPTYSEMIAAAIRAEKSRGGSSRQSIQKYIKSHYKVGHNADLQIKLSIRRLLAAGVLKQTKGVGASGSFRLAKSDKAKRSPGKKKKAVRRSTSPKKAARPRKARSPAKKPKATARKARKKSRASPKKAKKPKTVKAKSRKASKAKKVKRSKPRAKSGARKSPKKK
As to B1, the MIC is 3.8 ± 1.7 µg/mL in assay [1] (broth microdilution, 3 h at 37 °C with bacteria 1:1 (v/v), then OD600 growth 18 h in LB broth, lowest concentration without visible growth); more than 32 µg/mL in assay [2] (broth microdilution, 3 h at 37 °C, then OD600 growth 18 h in LB broth, highest concentration tested 32 µg/mL); 4.9 ± 1.5 µg/mL in assay [3] (setting [10]); 6.7 µg/mL in assay [3] (setting [12]); 1.9 ± 1.8 µg/mL in assay [4] (setting [10]); 4 µg/mL in assay [4] (setting [12]). In addition, the results for the minimum inhibitory concentration (MIC) in assay [5] (setting [13]), in assay [6] (setting [13]) and in assay [7] (setting [13]) were 2.4 ± 0.8 µg/mL, 3.8 ± 0.4 µg/mL and 4 ± 1.2 µg/mL, respectively. Further, the MBC in assay [1] (wells at MIC, MIC x 2, MIC x 3 plated on LB agar, 37 °C 18 h, lowest concentration without a single colony) is reported as 3.8 ± 1.7 µg/mL; in assay [2] (setting [9]) it was more than 32 µg/mL; in assay [3] (setting [11]) it was 6.7 ± 2.3 µg/mL; in assay [4] (setting [11]) it was 1.9 ± 1.8 µg/mL; in assay [5] (setting [9]) it was 2.7 ± 1.2 µg/mL; in assay [6] (setting [9]), 4 ± 0 µg/mL. Besides, the MBC in assay [7] (setting [9]) was determined as 4.4 ± 1.9 µg/mL. For the same molecule, the MBEC/MIC ratio in assay [8] (MBEC 19.1 ± 13.1 µg/mL versus planktonic MIC) is given as approximately 5 fold. The MBEC in assay [8] (biofilm grown 72 h at 22 °C on pegs, 2 h treatment at 22 °C, recovery growth OD600 48 h in BHI broth, mean ± SD, n = 3) amounted to 19.1 ± 13.1 µg/mL.

For orientation: MIC means the smallest concentration in the dilution series that meets the test's criterion for growth inhibition. A low value points to a more susceptible organism. What is called MBC is the smallest concentration meeting the test's criterion for killing. Higher therefore signals less potent killing.

The record behind these values is PMC5799255, “Histone H5 is a potent Antimicrobial Agent and a template for novel Antimicrobial Peptides” (Scientific Reports, 2018).
